Reference: paper PMC5776806

Target: extracellular soluble part of EGFR (sEGFR) (UniProt P00533)
Assay: SPR

**Q.** Which Kd does the source give for EGF (ligand) here?
**A.** Its Kd is 60 nM.
